# Key:
# [1] = target: Ent1 ENTH domain (S. cerevisiae), wild type (UniProt Q12518); assay: DLS; settings: complexes assembled in the presence of PIP2; parent: est. 100; read off a plot
# [2] = target: Sla2 ANTH domain (S. cerevisiae), wild type; assay: DLS; settings: complexes assembled in the presence of PIP2; parent: est. 100; read off a plot
# Sequence of UniProt Q12518 (Q12518 whole entry, looked up, the tested form may be a part): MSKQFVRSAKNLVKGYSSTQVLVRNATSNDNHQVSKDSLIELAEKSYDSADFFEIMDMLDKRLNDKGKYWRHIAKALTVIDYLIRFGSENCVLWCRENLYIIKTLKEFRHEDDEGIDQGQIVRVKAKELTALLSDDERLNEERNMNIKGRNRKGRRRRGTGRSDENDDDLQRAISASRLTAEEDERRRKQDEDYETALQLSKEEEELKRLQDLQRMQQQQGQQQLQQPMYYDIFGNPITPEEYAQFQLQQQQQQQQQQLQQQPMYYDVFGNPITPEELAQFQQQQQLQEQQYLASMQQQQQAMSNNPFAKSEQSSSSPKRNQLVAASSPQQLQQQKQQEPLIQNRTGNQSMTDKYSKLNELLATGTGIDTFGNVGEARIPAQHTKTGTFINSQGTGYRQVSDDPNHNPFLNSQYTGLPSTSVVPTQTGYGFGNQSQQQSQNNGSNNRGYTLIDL
Substance,response [1] [% mass],response [2] [% mass]
"Sla2 ANTH domain (S. cerevisiae), wild type R25A",32,
"Ent1 ENTH domain (S. cerevisiae), wild type (from UniProt Q12518) E54A; D57A; D60A",,100
"Sla2 ANTH domain (S. cerevisiae), wild type Q9A; K10A",100,
"Ent1 ENTH domain (S. cerevisiae), wild type (from UniProt Q12518) E107A",,75
"Sla2 ANTH domain (S. cerevisiae), wild type R3A",21,
"Sla2 ANTH domain (S. cerevisiae), wild type R3A; I4A; D37R",100,
"Sla2 ANTH domain (S. cerevisiae), wild type R29A",27,
"Sla2 ANTH domain (S. cerevisiae), wild type K10A; K13A; K14A",28,
"Ent1 ENTH domain (S. cerevisiae), wild type (from UniProt Q12518) Y100R",,37
